We go through two molecules from patent US20100266502A1 (Chugai, published 2010).

In experiment [1] the target is T1, active-form HB-EGF protein (R&D Systems, Inc., 259-HE) (human, UniProt Q99075 63-148). Kind of experiment: cell-based or functional assay.
Experiment [2] concerns the target T1, active-form HB-EGF protein (R&D …). Nature of the experiment: ELISA, purified antibody on plate coated with 1 µg/mL HB-EGF; given as ED50.
The target is the same in experiment [3]. Kind of experiment: ELISA, purified antibody on plate coated with 1 µg/mL HB-EGF; printed as ED50 (antibody concentration that gave 50% binding).
The target is the same in experiment [4]. Kind of experiment: cell-based or functional assay. The source holds these as a separate data set.
The target is the same in experiment [5]. Nature of the experiment: competition ELISA: inhibition of HB-EGF (50 ng/mL) binding to immobilised EGFR-Fc.

T1 sequence (Q99075 63-148 limits assumed): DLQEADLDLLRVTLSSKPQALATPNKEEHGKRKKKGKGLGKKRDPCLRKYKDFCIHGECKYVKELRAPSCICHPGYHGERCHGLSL

B1: HC-15 (antibody, V domains shown)
VH: EVQLQQSGPELVKPGASVKISCKASGYSFTGYYMHWVKQSPEKRLEWIGEINPRTGITTYNQKFKAKATLTVDKSSSTAYMQLKSLTSEDSAVYYCARVGSSGPFTYWGQGTLVTVSA
VL: DIVMTQSPSSLSVSAGDKVTMSCKSSQSLLNSRNQKNYLAWYQQKPWQPPKLLIYGASTRESGVPDRFTGSGSGTDFTLTISSVQAEDLAVYYCQNDYSYPFTFGTGTKLEIK
As to B1, in experiment [1], the “EC50 (nM), growth-inhibiting effect on EGFR_Ba/F3 cells” value was determined as 3.8 nM. The results for the EC50 in experiment [2], in experiment [3] and in experiment [5] were 0.65 nM, 0.2 nM and 0.52 nM, respectively. Moreover, the “Inhibition of HB-EGF-dependent growth (EC50, nmol/L)” value in experiment [4] was 2.06 nmol/L.

B2: HE-39 (antibody, V domains shown)
VH: EVQLQQSGPELMKPGASVKMSCKASGYIFTDYYMNWVKQSHGKSLEWIGRVNPNNGGTSYSQKFKDKATLTVDKSLNTAYMQVNSLTSEDSAVYYCARIYYGGSDWGQGTTLTVSS
VL: EIVMTQTPLSLSVTIGQPASISCKSSQSLLYTTGKTYLNWLQQRPGQAPKHLMYQVSKLVPGIPDRFSGSGSETDFTLKISRVEAEDLGVYYCLQGTYYPHTFGSGTKLEIK
B2: the EC50 in experiment [2] amounted to 0.016 nM; in experiment [5], 0.86 nM. Further, in experiment [4], the “Inhibition of HB-EGF-dependent growth (EC50, nmol/L)” value was 0.83 nmol/L.
